Experimental data as given in PMC9482650, “Quantitative fragmentomics allow affinity mapping of interactomes” (Nature Communications, 2022).
Values belong to the binder of their own block, whether it stands above or below them.

How the values were obtained:
Assay in all cases: holdup assay
Set-up in all cases: key: below the threshold = too weak to quantify, mostly under pKd 3.1 to 4
[1] = molecular target: T1, GRIP1_7, Q9Y3R0
T1 sequence (Q9Y3R0 999-1096, limits assumed, looked up): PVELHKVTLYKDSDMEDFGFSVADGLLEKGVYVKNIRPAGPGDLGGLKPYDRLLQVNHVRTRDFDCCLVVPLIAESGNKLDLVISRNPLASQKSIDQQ

[2] = molecular target: DLG4_3, P78352
[3] = molecular target: T2, GRIP1_3, Q9Y3R0
T2 sequence (Q9Y3R0 247-346, limits assumed, looked up): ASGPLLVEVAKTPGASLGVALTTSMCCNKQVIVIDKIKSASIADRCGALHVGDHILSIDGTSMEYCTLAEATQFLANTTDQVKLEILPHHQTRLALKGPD

[4] = molecular target: DLG4_2, P78352
[5] = molecular target: T3, LIN7A, O14910
T3 sequence (O14910 103-200, limits assumed, looked up): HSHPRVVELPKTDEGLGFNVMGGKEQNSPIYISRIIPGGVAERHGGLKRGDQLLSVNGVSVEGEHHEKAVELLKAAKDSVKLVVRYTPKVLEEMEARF

[6] = molecular target: T4, SYNJ2BP, P57105
T4 sequence (P57105 8-110, limits assumed, looked up): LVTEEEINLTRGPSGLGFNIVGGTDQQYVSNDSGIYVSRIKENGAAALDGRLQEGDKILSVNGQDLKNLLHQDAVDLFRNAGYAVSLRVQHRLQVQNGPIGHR

[7] = molecular target: SNX27, Q96L92
[8] = molecular target: MAST1, Q9Y2H9
[9] = molecular target: T5, PDZD7_3, Q9H5P4
T5 sequence (Q9H5P4 857-944, limits assumed, looked up): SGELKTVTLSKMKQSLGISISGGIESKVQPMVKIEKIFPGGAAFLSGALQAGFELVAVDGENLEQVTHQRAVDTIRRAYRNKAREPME

[10] = molecular target: Inadl_2, Q8NI35
[11] = molecular target: IL16_3, Q14005
[12] = molecular target: MAGI1_2, Q96QZ7
[13] = molecular target: GRIP2_4, Q9C0E4
[14] = molecular target: T6, CARD11, Q9BXL7
T6 sequence (Q9BXL7 662-765, limits assumed, looked up): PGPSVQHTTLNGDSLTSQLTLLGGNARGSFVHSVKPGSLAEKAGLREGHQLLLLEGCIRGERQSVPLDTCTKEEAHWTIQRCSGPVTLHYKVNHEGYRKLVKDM

[15] = molecular target: IL16_1, Q14005
[16] = molecular target: T7, MPP7, Q5T2T1
T7 sequence (Q5T2T1 134-230, limits assumed, looked up): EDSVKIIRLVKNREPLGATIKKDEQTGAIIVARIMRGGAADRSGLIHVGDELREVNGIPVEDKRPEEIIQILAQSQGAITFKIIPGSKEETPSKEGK

[17] = molecular target: FRMPD2_1, Q68DX3
[18] = molecular target: GRIP2_7, Q9C0E4
[19] = molecular target: GRID2IP_2, A4D2P6
[20] = molecular target: NHERF4_2, Q86UT5
[21] = molecular target: T8, DVL3, Q92997
T8 sequence (Q92997 244-331, limits assumed, looked up): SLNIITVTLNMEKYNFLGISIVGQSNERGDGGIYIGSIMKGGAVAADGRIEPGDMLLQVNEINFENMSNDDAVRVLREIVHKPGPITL

[22] = molecular target: T9, SNTG2, Q9NY99
T9 sequence (Q9NY99 68-166, limits assumed, looked up): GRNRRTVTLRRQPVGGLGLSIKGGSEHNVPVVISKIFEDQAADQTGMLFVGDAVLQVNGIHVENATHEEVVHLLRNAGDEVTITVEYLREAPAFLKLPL

[23] = molecular target: NHERF4_1, Q86UT5-2
[24] = molecular target: T10, GRIP1_4, Q9Y3R0
T10 sequence (Q9Y3R0 467-571, limits assumed, looked up): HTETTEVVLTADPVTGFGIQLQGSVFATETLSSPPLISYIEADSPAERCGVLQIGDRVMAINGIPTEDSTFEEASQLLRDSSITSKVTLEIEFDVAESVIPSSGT

[25] = molecular target: HTRA2, O43464
[26] = molecular target: NHERF4_4, Q86UT5
[27] = molecular target: DLG1_2, Q12959
[28] = molecular target: FRMPD2_3, Q68DX3
[29] = plain residues with an end cap or a label only (N-terminal biotin on a linker: ado-ado)
[30] = plain residues with an end cap or a label only (N-terminal biotin on a linker: ahx)

Chain of GRID2IP_2, A4D2P6 (A4D2P6 272-370): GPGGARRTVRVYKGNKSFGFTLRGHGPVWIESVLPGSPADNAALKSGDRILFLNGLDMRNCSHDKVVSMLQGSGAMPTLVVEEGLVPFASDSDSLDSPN
Chain of IL16_3, Q14005 (Q14005 1107-1207): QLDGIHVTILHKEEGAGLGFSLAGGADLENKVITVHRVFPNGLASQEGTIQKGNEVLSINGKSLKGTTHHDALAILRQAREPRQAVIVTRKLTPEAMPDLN
Chain of FRMPD2_1, Q68DX3 (Q68DX3 770-861): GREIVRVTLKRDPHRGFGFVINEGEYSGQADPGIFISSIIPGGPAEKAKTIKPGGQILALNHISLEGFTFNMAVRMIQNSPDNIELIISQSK
Chain of IL16_1, Q14005 (Q14005 210-306): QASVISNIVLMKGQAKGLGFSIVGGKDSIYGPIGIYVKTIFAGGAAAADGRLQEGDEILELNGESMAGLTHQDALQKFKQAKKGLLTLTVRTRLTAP
Chain of Inadl_2, Q8NI35 (Q8NI35 238-335): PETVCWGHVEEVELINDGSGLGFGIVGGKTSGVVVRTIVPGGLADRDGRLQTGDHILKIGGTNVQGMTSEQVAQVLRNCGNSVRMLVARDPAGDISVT
Chain of DLG1_2, Q12959 (Q12959 314-412): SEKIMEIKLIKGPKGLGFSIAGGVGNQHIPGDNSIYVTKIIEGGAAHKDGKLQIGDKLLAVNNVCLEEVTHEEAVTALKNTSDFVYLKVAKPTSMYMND
Chain of MAGI1_2, Q96QZ7 (Q96QZ7 456-580): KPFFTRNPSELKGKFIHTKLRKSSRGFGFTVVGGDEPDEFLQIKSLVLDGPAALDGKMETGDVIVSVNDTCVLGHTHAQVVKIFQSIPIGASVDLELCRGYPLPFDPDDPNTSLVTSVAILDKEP
Chain of GRIP2_7, Q9C0E4 (Q9C0E4 934-1023): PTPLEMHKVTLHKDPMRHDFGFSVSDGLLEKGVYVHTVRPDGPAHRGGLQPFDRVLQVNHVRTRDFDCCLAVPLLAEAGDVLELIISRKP
Chain of MAST1, Q9Y2H9 (Q9Y2H9 962-1065): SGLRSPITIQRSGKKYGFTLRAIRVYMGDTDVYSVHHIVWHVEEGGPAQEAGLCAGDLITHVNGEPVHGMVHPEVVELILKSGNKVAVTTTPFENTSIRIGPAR
Chain of FRMPD2_3, Q68DX3 (Q68DX3 1073-1166): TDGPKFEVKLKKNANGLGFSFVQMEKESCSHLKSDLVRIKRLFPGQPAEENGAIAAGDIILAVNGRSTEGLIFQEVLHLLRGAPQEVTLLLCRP
Chain of GRIP2_4, Q9C0E4 (Q9C0E4 446-548): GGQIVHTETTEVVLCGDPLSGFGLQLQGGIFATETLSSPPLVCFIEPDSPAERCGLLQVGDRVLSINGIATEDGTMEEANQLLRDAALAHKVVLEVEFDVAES
Chain of NHERF4_2, Q86UT5 (Q86UT5 220-308): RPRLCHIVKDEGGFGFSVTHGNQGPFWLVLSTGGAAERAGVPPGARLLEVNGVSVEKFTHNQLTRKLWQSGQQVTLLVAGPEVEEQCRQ
Chain of NHERF4_4, Q86UT5 (Q86UT5 464-550): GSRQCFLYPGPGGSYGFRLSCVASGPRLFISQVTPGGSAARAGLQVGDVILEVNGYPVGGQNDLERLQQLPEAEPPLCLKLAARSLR
Chain of NHERF4_1, Q86UT5-2 (Q86UT5 other isoform, or with tags, fused parts or gaps): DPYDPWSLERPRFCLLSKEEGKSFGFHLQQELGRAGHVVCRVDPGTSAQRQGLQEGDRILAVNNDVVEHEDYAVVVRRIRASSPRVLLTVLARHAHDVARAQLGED
Chain of DLG4_2, P78352 (P78352 155-259): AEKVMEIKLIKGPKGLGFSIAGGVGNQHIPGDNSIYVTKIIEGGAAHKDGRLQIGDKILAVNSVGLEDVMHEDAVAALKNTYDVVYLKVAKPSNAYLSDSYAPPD
Chain of DLG4_3, P78352 (P78352 306-403): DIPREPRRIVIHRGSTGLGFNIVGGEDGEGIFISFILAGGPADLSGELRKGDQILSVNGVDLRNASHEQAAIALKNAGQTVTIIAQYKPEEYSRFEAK
Chain of HTRA2, O43464 (O43464 355-458): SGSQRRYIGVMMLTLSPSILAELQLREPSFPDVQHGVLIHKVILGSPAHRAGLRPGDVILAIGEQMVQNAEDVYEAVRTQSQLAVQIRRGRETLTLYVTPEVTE

- pKd [1, 29]: below the threshold
- pKd [2, 29]: 4.69
- pKd [3, 29]: below the threshold
- pKd [4, 29]: 4.89
- pKd [5, 29]: below the threshold
- pKd [6, 29]: 5.08
- pKd [7, 29]: 4.99
- pKd [8, 29]: below the threshold
- pKd [9, 29]: 4.19
- pKd [10, 29]: below the threshold
- pKd [11, 29]: below the threshold
- pKd [12, 29]: 4.72
- pKd [13, 29]: below the threshold
- pKd [14, 29]: below the threshold
- pKd [15, 29]: below the threshold
- pKd [16, 29]: below the threshold
- pKd [17, 29]: below the threshold
- pKd [18, 29]: below the threshold
- pKd [19, 29]: 3.89
- pKd [20, 29]: below the threshold
- pKd [21, 29]: below the threshold
- pKd [22, 29]: below the threshold
- pKd [23, 29]: below the threshold
- pKd [24, 29]: below the threshold
- pKd [25, 29]: below the threshold
- pKd [26, 29]: below the threshold
- pKd [27, 29]: 5.01
- pKd [28, 29]: below the threshold
Binder: NTANRRTTPV [CACNG2, Q9Y698]

- pKd [1, 30]: below the threshold
- pKd [2, 30]: 3.78
- pKd [3, 30]: below the threshold
- pKd [4, 30]: 3.55
- pKd [5, 30]: below the threshold
- pKd [6, 30]: 4.26
- pKd [7, 30]: 4.03
- pKd [8, 30]: 4.44
- pKd [9, 30]: 3.92
- pKd [10, 30]: below the threshold
- pKd [11, 30]: below the threshold
- pKd [12, 30]: 4.97
- pKd [13, 30]: below the threshold
- pKd [14, 30]: below the threshold
- pKd [15, 30]: below the threshold
- pKd [16, 30]: below the threshold
- pKd [17, 30]: 3.77
- pKd [18, 30]: below the threshold
- pKd [19, 30]: 4.18
- pKd [20, 30]: below the threshold
- pKd [21, 30]: below the threshold
- pKd [22, 30]: below the threshold
- pKd [23, 30]: 4.47
- pKd [24, 30]: below the threshold
- pKd [25, 30]: below the threshold
- pKd [26, 30]: below the threshold
- pKd [27, 30]: 3.62
- pKd [28, 30]: below the threshold
Binder: TQKFRASTAL [FRMPD1, Q5SYB0]
